This is an account of results in patent publication US20250188143A1, “COMBINED GENE AND RADIO THERAPY FOR THE TREATMENT OF CANCER” (FUNDACION PARA LA INVESTIGACION MEDICA APLICADA, priority 2022, published 2025).

In data set [1] the target is T1, murine STING (Mus musculus, UniProt Q3TBT3).
T1 sequence (Q3TBT3 1-378): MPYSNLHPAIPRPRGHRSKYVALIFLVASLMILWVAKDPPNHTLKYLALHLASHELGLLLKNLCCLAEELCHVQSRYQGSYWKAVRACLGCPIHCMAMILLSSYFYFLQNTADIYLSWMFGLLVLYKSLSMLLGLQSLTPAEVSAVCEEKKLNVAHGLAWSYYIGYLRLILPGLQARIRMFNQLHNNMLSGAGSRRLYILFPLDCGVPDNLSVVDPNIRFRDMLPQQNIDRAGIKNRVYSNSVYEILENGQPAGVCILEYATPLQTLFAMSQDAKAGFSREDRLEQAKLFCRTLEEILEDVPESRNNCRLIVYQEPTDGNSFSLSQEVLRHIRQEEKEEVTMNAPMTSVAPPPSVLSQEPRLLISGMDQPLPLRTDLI
Particulars: cited from earlier work.

Data set [2] relates to B16 cells. The experiment in a line: Radiation and IFN signaling on activation of the ISREx4 promoter (luciferase). The class given is cell-based, murine. Particulars: B16 cells transduced with AAV8-ISREx4-LucmiR122T.
Protocol: To this end, B16 cells received 8 Gy or 0 Gy as described above and then were transduced with AAV8-ISREx4-LucmiR122T (1×10^5 viral genomes/cell) and 48 h later 1,000 IU of either IFN-α, IFN-β or IFN-γ were added to the culture and luciferase activity was measured 48 h later as described above.
Data set [3] relates to HEK293T cells stably expressing hSTINGmut. Description: Luciferase activity under synthetic promoters. The class given is cell-based, human. Particulars: for luciferase activity upon DMXAA (inducibility): DMXAA 50 μg/mL; for luciferase activity in the absence of DMXAA (leakage): vehicle. An excerpt: (§1) Seven different promoters were generated, namely short STATx4 (4 STAT motifs separated by 6 nucleotides according to SEQ ID NO: 26), IRSF3×4 (4 IRSF3 motifs separated by 20 nucleotides according to SEQ ID NO: 27), short IRSF3×4 (4 IRSF3 motifs separated by 6 nucleotides according to SEQ ID NO: 28), ISREx4 (4 ISRE motifs separated by 20 nucleotides according to SEQ ID NO: 12), short ISREx4 (4 ISRE motifs separated by 6 nucleotides according to SEQ ID NO: 13), NFκBx4 (4 NFκB motifs separated by 20 nucleotides according to SEQ ID NO: 29) and short NFκBx4 (4 NFκB motifs separated by 6 nucleotides according to SEQ ID NO: 30). […] In addition, a plasmid containing the luciferase sequence under the control of the murine IFN-β-promoter (mIFN-β) and a plasmid containing the luciferase sequence under the control of CXCL10-promoter were used as controls. Either MC38 cells or human HEK293T cells, both which stably expressed hSTINGmut as described above (example 1), were transfected with the indicated plasmids using Lipofectamine3000 according to the manufacturers protocol, whereas a negative control was mock-transfected (Basic).

Data set [4] relates to MC38 cell lines stably expressing hSTINGmut. The experiment in a line: scIL-12 mRNA and protein expression under STING-activity dependent promoters. Particulars: for scIL-12 mRNA or protein expression upon DMXAA: DMXAA 50 μg/mL. The class given is cell-based, murine. From the text: The CXCL9-promoter and the CXCL10-promoter from experiment 2, and a full length IFN-β-promoter (IFN-β according to SEQ ID NO: 25) were used for the following experiment. To this end, lentiviral vectors encoding murine scIL-12 under the control of these three different promoters were constructed. […] After the indicated time points, cells were harvested. The cell lysate was used to measure scIL-12 mRNA expression by qPCR as described before (example 1, experiment 1), whereas the supernatant was used to measure secreted scIL-12 protein in NUNC MaxiSorp flat-bottom 96-well plates using an ELISA assay kit (OptEIA, Mouse IL-12 (p70), BD Biosciences, San Diego, CA USA), following manufacturer's instructions.

Data set [5] deals with MC38 cells stably expressing hSTINGmut. Description: Luciferase activity under synthetic promoters. Type of data set: cell-based, murine. Conditions: DMXAA 50 μg/mL.
Excerpt: as §1

The test system of data set [6] is MC38 cell lines stably expressing hSTINGmut. The experiment in a line: Luciferase activity under chemokine promoters. The class given is cell-based, murine. Conditions: for luciferase activity upon DMXAA: DMXAA 50 μg/mL, 3 or 6 h, compared to the IFN-β promoters; for luciferase activity in the absence of DMXAA (leaky expression): vehicle. As for the experimental part: The CXCL9-promoter (CXCL9 according to SEQ ID NO: 23) and the CXCL10-promoter (CXCL10 according to SEQ ID NO: 24) were used for the following experiment. To this end, lentiviral vectors encoding luciferase under the control of these two different promoters were constructed. […] In addition, the lentiviral vectors encoding the short IFN-β A promoter, the short IFN-β B promoter, the short IFN-β C promoter described in experiment 1 were used as a comparison. […] After another 3 or 6 h, cells were harvested and luciferase activity measured as described in experiment 1.

Setting [7] is: 1,000 IU interferon alone (0 Gy).
The mark [8] stands for this setting: interferon together with radiation 8 Gy.

As to `O=C(O)Cc1cccc2c(=O)cc(-c3ccccc3)oc12` [FAA, flavone-8-acetic acid], the “activation of murine STING” value in data set [1] is recorded as “activated”.
IFN-α: the luciferase activity result in data set [2] (setting [7]) is recorded as “significantly increased luciferase activity”; in data set [2] (setting [8]), “induced luciferase activity dramatically”.

B1: IFN-γ: exogenously added interferon, 1,000 IU (protein, UniProt P01579 24-161, looked up)
Interferon gamma: QDPYVKEAENLKKYFNAGHSDVADNGTLFLGILKNWKEESDRKIMQSQIVSFYFKLFKNFKDDQSIQKSVETIKEDMNVKFFNSNKKKRDDFEKLTNYSVTDLNVQRKAIHELIQVMAELSPAAKTGKRKRSQMLFRG
As for B1, the luciferase activity entry is “significantly increased luciferase activity” in data set [2] (setting [7]) and “induced luciferase activity dramatically” in data set [2] (setting [8]).

B2: ISREx4-promoter: 4 ISRE motifs separated by 20 nucleotides according to SEQ ID NO: 12 (nucleic acid)
DNA: ATCTCTGCGATGAACCTCACAGTTTCGCTTTCTATCTCTGCGATGAACCTCACAGTTTCGCTTTCTATCTCTGCGATGAACCTCACAGTTTCGCTTTCTATCTCTGCGATGAACCTCACAGTTTCGCTTTCTGTGCCTCTTATGATCTGGATCTCGAGCCATGGTCGAGGCCTGTAGGCGTGTACGGTGGGAGGCTTATATAAGCAGAGCTC
modifications: misc_feature 1..212 ISREx4
In the case of B2, in data set [3], the “luciferase activity upon DMXAA (inducibility)” value is “highest inducibility” and the “luciferase activity in the absence of DMXAA (leakage)” value is reported as “undetectable leakage”.

B3: IFN-β-promoter: full length IFN-β-promoter according to SEQ ID NO: 25 (nucleic acid, listed as Mus musculus)
DNA: CCAGGATGTGGGGTTCTCTCCCAAAGGGAGCTATGGCCCATTGATGTGCCATTTCTCTTATAGTACACTATTGTAAGCCCCCTGGGAGCTCACAGAGACCCTCTCCCACCATCCCACTATTTCAAAGGGCAGCAGCTGTGCCATCCTTTCAGGATGAGCAGCTACTCTGCCTGGCTTTTCAGTGGACACTTTGGCTGTTTGAGAGTTCTTTTATCTTCAGGGCTGTCTCCTTTCTGTTCTTCTCTCCTGGATATTTCTCTTCCTTTGCTCCAGCAATTGGTGAAACTGTACAAGATTTTATAAATCCTTAGTTTGTATATATTTTAACCCAGTACATAGCATATAAAATAGCCAGGAGCTTGAATAAAATGAATATTAGAAGCTGTTAGAATAAGAGAAAATGACAGAGGAAAACTGAAAGGGAGAACTGAAAGTGGGAAATTCCTCTGAGGCAGAAAGGACCATCCCTTATAAATAGCACAGGCCATGAAGGAAGATCATTCTCACTGCAGCCTTTGACAGCCTTTGCCTCATCTTGCAGGTAGCAGCCGACACCAGCCTGGCTTCCATC
modifications: misc_feature 1..571 IFNb1-promoter
On to B3, for which the “scIL-12 mRNA or protein expression upon DMXAA” value in data set [4] is listed as “poor”.

B4: short STAT-promoter: 4 STAT motifs separated by 6 nucleotides according to SEQ ID NO: 26 (nucleic acid)
DNA: ATCTCTGCGATGAACCTCACTTCGCTAGAAATCTCTGCGATGAACCTCACTTCGCTAGAAATATCTCTGCGATGAACCTCACTTCGCTAGAAATCTCTGCGATGAACCTCACTTCGCTAGAAGTGCCTCTTATGATCTGGATCTCGAGCCATGGTCGAGGCCTGTAGGCGTGTACGGTGGGAGGCTTATATAAGCAGAGCTC
modifications: misc_feature 1..202 STATx4
Consider B4, for which the “luciferase activity upon DMXAA (inducibility)” value in data set [5] is “poor inducibility”.

B5: CXCL10-promoter: CXCL10 promoter according to SEQ ID NO: 24 (nucleic acid, listed as Mus musculus)
DNA: TCTAACTGTTCACTAAGTTGTATAGACTTTGGATCTGGCTAAATTTGGCGTGTGATTTTTTTTTAAAGTTTATTCCAAGTATTTTATAATAAAGCATATGAAGTAAAAAGCAAAAATAAACAGTGTAAACACAACAAATGTAAAAACCATGGTTAGAACCTGACTTAGATATCAGTTCTGTGTTTTATTTATGAGAGAAGGAAGATGAGAATTAAAGCCATTTCCAGACTTATTCTGCAAGGCACTGCATCTGATTTCTCAAACAGCTCACGCTTTGGAAAGTGAAACTTACCTCACTCGTTAAAAATTAAAAGGAGCACAAGAGGGGAGAGGGAAATTCCAAGTTCATGGGTCACAATAAACACAAGCAATGCCCTCGGTTTACAGGGGACTTCCCTCGGGTTGCGGAGCCTTGCTGAGTCATCTCCAAAGTCAGCCAATCAGGACTCAGGGAGGGAAACTCTTTGCAGATAAATACTCCTCAGCAGCCGGCACTCGAGAAGCGCTTCATCCACCGCTGAGAGACATCCCGAGCCAACCTTCCGGAAGCCTCCCCATCAGCACC
modifications: misc_feature 1..565 CXCL10-promoter
As for B5, in data set [6], the “luciferase activity upon DMXAA” value was “significantly higher luciferase activities” and the “luciferase activity in the absence of DMXAA (leaky expression)” value is given as “significant luciferase activity”. For the same molecule, the “scIL-12 mRNA or protein expression upon DMXAA” value in data set [4] was “highly upregulated”. Besides, the “scIL-12 production in the absence of DMXAA (leakage)” value in data set [4] (vehicle) is “significant leakage”. Further, in data set [3], the “luciferase activity upon DMXAA (inducibility)” value is on record as “highest inducibility” and the “luciferase activity in the absence of DMXAA (leakage)” value is given as “considerable leakage”.

B6: CXCL9-promoter: CXCL9 promoter according to SEQ ID NO: 23 (nucleic acid, listed as Mus musculus)
DNA: GACACAGACATCTCGTGAAACATCTGGAAAAGGTAGCAGGGAACGGGACAGCAGTAGCTTATGCAACTAATCTAGCAATTACAATGATAGGAAACTGTAGCCACGGTGAGACGAAATGGATTTACCCTCAACAAATTAAGAAGCTTTGACTTGTGAGGAAAGGCAGTTTGAGTCGCCATATAGTGTCATGTCCCACGTGGGAAGTACATCTCCAACCTTCATTGTACAACATTAATATAGTCATTGTATAATCTATTCCACATCCAGGTAGCAACTTTGCCTGGGGGTGGTTTCACATCCCTTACTATAAACTCCCCGTTTATGTGAAATGGAAGTAGAACATGCAGAAATTCCCTGGGATCTGAGAGTAGGGTTTTCCCCAGGACGATCAATTTGTGGTTAGTTTAGTTCTTCTAGGTCAGCTGAGGAGACCAGCCAATCAGAGACGGGAAGGAAAAGGGATTTCCTAAATAAATATGATCCCCAAGAACATGCTCTCTAAAGACATTCTCGGACTTCACTCCAACACAGTGACTCAATAGAACTCAGCTCTGCC
modifications: misc_feature 1..556 CXCL9-promoter
As for B6, in data set [6], the “luciferase activity upon DMXAA” value is reported as “significantly higher luciferase activities” and the “luciferase activity in the absence of DMXAA (leaky expression)” value is given as “significant luciferase activity”. Also, the “scIL-12 mRNA or protein expression upon DMXAA” value in data set [4] is “poor”.
